B1: Compound 90 (peptide)
peptide: Palmitoyl-TNAGRSDTRQQYRALL-NH2
SMILES: CCCCCCCCCCCCCCCC(=O)N[C@H](C(=O)N[C@@H](CC(N)=O)C(=O)N[C@@H](C)C(=O)NCC(=O)N[C@@H](CCCNC(=N)N)C(=O)N[C@@H](CO)C(=O)N[C@@H](CC(=O)O)C(=O)N[C@H](C(=O)N[C@@H](CCCNC(=N)N)C(=O)N[C@@H](CCC(N)=O)C(=O)N[C@@H](CCC(N)=O)C(=O)N[C@@H](Cc1ccc(O)cc1)C(=O)N[C@@H](CCCNC(=N)N)C(=O)N[C@@H](C)C(=O)N[C@@H](CC(C)C)C(=O)N[C@@H](CC(C)C)C(N)=O)[C@@H](C)O)[C@@H](C)O
B2: Compound 36 (peptide)
peptide: Palmitoyl-HSLIFMAFFSEKKYLWGFT-NH2
SMILES: CCCCCCCCCCCCCCCC(=O)N[C@@H](Cc1c[nH]cn1)C(=O)N[C@@H](CO)C(=O)N[C@@H](CC(C)C)C(=O)N[C@H](C(=O)N[C@@H](Cc1ccccc1)C(=O)N[C@@H](CCSC)C(=O)N[C@@H](C)C(=O)N[C@@H](Cc1ccccc1)C(=O)N[C@@H](Cc1ccccc1)C(=O)N[C@@H](CO)C(=O)N[C@@H](CCC(=O)O)C(=O)N[C@@H](CCCCN)C(=O)N[C@@H](CCCCN)C(=O)N[C@@H](Cc1ccc(O)cc1)C(=O)N[C@@H](CC(C)C)C(=O)N[C@@H](Cc1c[nH]c2ccccc12)C(=O)NCC(=O)N[C@@H](Cc1ccccc1)C(=O)N[C@H](C(N)=O)[C@@H](C)O)[C@@H](C)CC
B3: Compound 94 (peptide)
peptide: Palmitoyl-AGRSDTRQQYRKLLFA-NH2
SMILES: CCCCCCCCCCCCCCCC(=O)N[C@@H](C)C(=O)NCC(=O)N[C@@H](CCCNC(=N)N)C(=O)N[C@@H](CO)C(=O)N[C@@H](CC(=O)O)C(=O)N[C@H](C(=O)N[C@@H](CCCNC(=N)N)C(=O)N[C@@H](CCC(N)=O)C(=O)N[C@@H](CCC(N)=O)C(=O)N[C@@H](Cc1ccc(O)cc1)C(=O)N[C@@H](CCCNC(=N)N)C(=O)N[C@@H](CCCCN)C(=O)N[C@@H](CC(C)C)C(=O)N[C@@H](CC(C)C)C(=O)N[C@@H](Cc1ccccc1)C(=O)N[C@@H](C)C(N)=O)[C@@H](C)O
B4: Compound 87 (peptide)
peptide: Palmitoyl-TNAGRSDTRQQYRKLLA-NH2
SMILES: CCCCCCCCCCCCCCCC(=O)N[C@H](C(=O)N[C@@H](CC(N)=O)C(=O)N[C@@H](C)C(=O)NCC(=O)N[C@@H](CCCNC(=N)N)C(=O)N[C@@H](CO)C(=O)N[C@@H](CC(=O)O)C(=O)N[C@H](C(=O)N[C@@H](CCCNC(=N)N)C(=O)N[C@@H](CCC(N)=O)C(=O)N[C@@H](CCC(N)=O)C(=O)N[C@@H](Cc1ccc(O)cc1)C(=O)N[C@@H](CCCNC(=N)N)C(=O)N[C@@H](CCCCN)C(=O)N[C@@H](CC(C)C)C(=O)N[C@@H](CC(C)C)C(=O)N[C@@H](C)C(N)=O)[C@@H](C)O)[C@@H](C)O
B5: Compound 92 (peptide)
peptide: Palmitoyl-TNAGRSDTRQQARKLL-NH2
SMILES: CCCCCCCCCCCCCCCC(=O)N[C@H](C(=O)N[C@@H](CC(N)=O)C(=O)N[C@@H](C)C(=O)NCC(=O)N[C@@H](CCCNC(=N)N)C(=O)N[C@@H](CO)C(=O)N[C@@H](CC(=O)O)C(=O)N[C@H](C(=O)N[C@@H](CCCNC(=N)N)C(=O)N[C@@H](CCC(N)=O)C(=O)N[C@@H](CCC(N)=O)C(=O)N[C@@H](C)C(=O)N[C@@H](CCCNC(=N)N)C(=O)N[C@@H](CCCCN)C(=O)N[C@@H](CC(C)C)C(=O)N[C@@H](CC(C)C)C(N)=O)[C@@H](C)O)[C@@H](C)O
B6: Compound 35 (peptide)
peptide: Palmitoyl-YLHSLIFMAFFSEKKYLWGFT-NH2
SMILES: CCCCCCCCCCCCCCCC(=O)N[C@@H](Cc1ccc(O)cc1)C(=O)N[C@@H](CC(C)C)C(=O)N[C@@H](Cc1c[nH]cn1)C(=O)N[C@@H](CO)C(=O)N[C@@H](CC(C)C)C(=O)N[C@H](C(=O)N[C@@H](Cc1ccccc1)C(=O)N[C@@H](CCSC)C(=O)N[C@@H](C)C(=O)N[C@@H](Cc1ccccc1)C(=O)N[C@@H](Cc1ccccc1)C(=O)N[C@@H](CO)C(=O)N[C@@H](CCC(=O)O)C(=O)N[C@@H](CCCCN)C(=O)N[C@@H](CCCCN)C(=O)N[C@@H](Cc1ccc(O)cc1)C(=O)N[C@@H](CC(C)C)C(=O)N[C@@H](Cc1c[nH]c2ccccc12)C(=O)NCC(=O)N[C@@H](Cc1ccccc1)C(=O)N[C@H](C(N)=O)[C@@H](C)O)[C@@H](C)CC
B7: Compound 88 (peptide)
peptide: Palmitoyl-TNAGRSDTRQQYRKLA-NH2
SMILES: CCCCCCCCCCCCCCCC(=O)N[C@H](C(=O)N[C@@H](CC(N)=O)C(=O)N[C@@H](C)C(=O)NCC(=O)N[C@@H](CCCNC(=N)N)C(=O)N[C@@H](CO)C(=O)N[C@@H](CC(=O)O)C(=O)N[C@H](C(=O)N[C@@H](CCCNC(=N)N)C(=O)N[C@@H](CCC(N)=O)C(=O)N[C@@H](CCC(N)=O)C(=O)N[C@@H](Cc1ccc(O)cc1)C(=O)N[C@@H](CCCNC(=N)N)C(=O)N[C@@H](CCCCN)C(=O)N[C@@H](CC(C)C)C(=O)N[C@@H](C)C(N)=O)[C@@H](C)O)[C@@H](C)O
B8: Compound 1 (peptide)
peptide: Palmitoyl-RRLHSTRNYIHMH-NH2
SMILES: CCCCCCCCCCCCCCCC(=O)N[C@@H](CCCNC(=N)N)C(=O)N[C@@H](CCCNC(=N)N)C(=O)N[C@@H](CC(C)C)C(=O)N[C@@H](Cc1c[nH]cn1)C(=O)N[C@@H](CO)C(=O)N[C@H](C(=O)N[C@@H](CCCNC(=N)N)C(=O)N[C@@H](CC(N)=O)C(=O)N[C@@H](Cc1ccc(O)cc1)C(=O)N[C@H](C(=O)N[C@@H](Cc1c[nH]cn1)C(=O)N[C@@H](CCSC)C(=O)N[C@@H](Cc1c[nH]cn1)C(N)=O)[C@@H](C)CC)[C@@H](C)O
B9: Compound 95 (peptide)
peptide: Palmitoyl-AGRSDTRQQYRKLLFS-NH2
SMILES: CCCCCCCCCCCCCCCC(=O)N[C@@H](C)C(=O)NCC(=O)N[C@@H](CCCNC(=N)N)C(=O)N[C@@H](CO)C(=O)N[C@@H](CC(=O)O)C(=O)N[C@H](C(=O)N[C@@H](CCCNC(=N)N)C(=O)N[C@@H](CCC(N)=O)C(=O)N[C@@H](CCC(N)=O)C(=O)N[C@@H](Cc1ccc(O)cc1)C(=O)N[C@@H](CCCNC(=N)N)C(=O)N[C@@H](CCCCN)C(=O)N[C@@H](CC(C)C)C(=O)N[C@@H](CC(C)C)C(=O)N[C@@H](Cc1ccccc1)C(=O)N[C@@H](CO)C(N)=O)[C@@H](C)O
B10: Compound 44 (peptide)
peptide: Palmitoyl-NIVRVLATKLRETNAGRSD-NH2
SMILES: CCCCCCCCCCCCCCCC(=O)N[C@@H](CC(N)=O)C(=O)N[C@H](C(=O)N[C@H](C(=O)N[C@@H](CCCNC(=N)N)C(=O)N[C@H](C(=O)N[C@@H](CC(C)C)C(=O)N[C@@H](C)C(=O)N[C@H](C(=O)N[C@@H](CCCCN)C(=O)N[C@@H](CC(C)C)C(=O)N[C@@H](CCCNC(=N)N)C(=O)N[C@@H](CCC(=O)O)C(=O)N[C@H](C(=O)N[C@@H](CC(N)=O)C(=O)N[C@@H](C)C(=O)NCC(=O)N[C@@H](CCCNC(=N)N)C(=O)N[C@@H](CO)C(=O)N[C@@H](CC(=O)O)C(N)=O)[C@@H](C)O)[C@@H](C)O)C(C)C)C(C)C)[C@@H](C)CC
B11: Compound 91 (peptide)
peptide: Palmitoyl-TNAGRSDTRQQYAKLL-NH2
SMILES: CCCCCCCCCCCCCCCC(=O)N[C@H](C(=O)N[C@@H](CC(N)=O)C(=O)N[C@@H](C)C(=O)NCC(=O)N[C@@H](CCCNC(=N)N)C(=O)N[C@@H](CO)C(=O)N[C@@H](CC(=O)O)C(=O)N[C@H](C(=O)N[C@@H](CCCNC(=N)N)C(=O)N[C@@H](CCC(N)=O)C(=O)N[C@@H](CCC(N)=O)C(=O)N[C@@H](Cc1ccc(O)cc1)C(=O)N[C@@H](C)C(=O)N[C@@H](CCCCN)C(=O)N[C@@H](CC(C)C)C(=O)N[C@@H](CC(C)C)C(N)=O)[C@@H](C)O)[C@@H](C)O
B12: Compound 93 (peptide)
peptide: Palmitoyl-TNAGRSDTRQAYRKLL-NH2
SMILES: CCCCCCCCCCCCCCCC(=O)N[C@H](C(=O)N[C@@H](CC(N)=O)C(=O)N[C@@H](C)C(=O)NCC(=O)N[C@@H](CCCNC(=N)N)C(=O)N[C@@H](CO)C(=O)N[C@@H](CC(=O)O)C(=O)N[C@H](C(=O)N[C@@H](CCCNC(=N)N)C(=O)N[C@@H](CCC(N)=O)C(=O)N[C@@H](C)C(=O)N[C@@H](Cc1ccc(O)cc1)C(=O)N[C@@H](CCCNC(=N)N)C(=O)N[C@@H](CCCCN)C(=O)N[C@@H](CC(C)C)C(=O)N[C@@H](CC(C)C)C(N)=O)[C@@H](C)O)[C@@H](C)O
B13: Compound 89 (peptide)
peptide: Palmitoyl-TNAGRSDTRQQYRKAL-NH2
SMILES: CCCCCCCCCCCCCCCC(=O)N[C@H](C(=O)N[C@@H](CC(N)=O)C(=O)N[C@@H](C)C(=O)NCC(=O)N[C@@H](CCCNC(=N)N)C(=O)N[C@@H](CO)C(=O)N[C@@H](CC(=O)O)C(=O)N[C@H](C(=O)N[C@@H](CCCNC(=N)N)C(=O)N[C@@H](CCC(N)=O)C(=O)N[C@@H](CCC(N)=O)C(=O)N[C@@H](Cc1ccc(O)cc1)C(=O)N[C@@H](CCCNC(=N)N)C(=O)N[C@@H](CCCCN)C(=O)N[C@@H](C)C(=O)N[C@@H](CC(C)C)C(N)=O)[C@@H](C)O)[C@@H](C)O

* marks the point of attachment. Palmitoyl = CCCCCCCCCCCCCCCC(=O)*

The assay deals with PTHR1 receptor.
Chain of PTHR1 receptor (P25961 whole entry): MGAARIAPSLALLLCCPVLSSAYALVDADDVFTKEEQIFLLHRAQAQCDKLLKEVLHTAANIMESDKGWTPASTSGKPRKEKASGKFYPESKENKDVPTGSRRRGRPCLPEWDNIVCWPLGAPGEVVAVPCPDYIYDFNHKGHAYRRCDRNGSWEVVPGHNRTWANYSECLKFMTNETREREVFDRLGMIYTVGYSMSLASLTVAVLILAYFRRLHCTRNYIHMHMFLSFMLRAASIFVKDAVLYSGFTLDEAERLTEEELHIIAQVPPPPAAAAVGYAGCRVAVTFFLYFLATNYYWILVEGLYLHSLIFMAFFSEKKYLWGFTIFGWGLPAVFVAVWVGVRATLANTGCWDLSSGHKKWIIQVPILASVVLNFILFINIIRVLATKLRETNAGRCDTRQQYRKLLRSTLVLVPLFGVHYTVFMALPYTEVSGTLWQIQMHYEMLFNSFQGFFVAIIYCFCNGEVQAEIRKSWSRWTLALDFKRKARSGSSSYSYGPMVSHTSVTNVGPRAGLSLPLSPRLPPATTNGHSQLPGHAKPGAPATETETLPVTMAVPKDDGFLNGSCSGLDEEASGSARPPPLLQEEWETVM
Consider B1, for which the Fold Shift of EC50 stood at 2 fold and the Inhibition of Maximal Response is 21%.

As for B2, the Fold Shift of EC50 was found to be 1.2 fold and the Inhibition of Maximal Response worked out at 5.9%.

Consider B3, for which the Fold Shift of EC50 came to 18.7 fold and the Inhibition of Maximal Response is -24.4%.

On to B4, for which the Fold Shift of EC50 stood at 4.1 fold and the Inhibition of Maximal Response came out at 8%.

For B5, the Fold Shift of EC50 was 5 fold and the Inhibition of Maximal Response was determined as 8.3%.

For B6, the Fold Shift of EC50 amounted to 1.1 fold and the Inhibition of Maximal Response was 24.5%.

As for B7, the Fold Shift of EC50 stood at 2.8 fold and the Inhibition of Maximal Response was -25%.

Take B8: the Fold Shift of EC50 was 1.3 fold and the Inhibition of Maximal Response is 5.5%.

As to B9, the Fold Shift of EC50 was 19 fold and the Inhibition of Maximal Response is -5.7%.

In the case of B10, the Fold Shift of EC50 worked out at 2 fold and the Inhibition of Maximal Response is -8.3%.

B11: the Fold Shift of EC50 was 2 fold and the Inhibition of Maximal Response is 9.8%.

As for B12, the Fold Shift of EC50 stood at 13.4 fold and the Inhibition of Maximal Response was -67%.

For the molecule B13, the Fold Shift of EC50 was 2.3 fold and the Inhibition of Maximal Response was -20.4%.
